{"source": "a protein production outcome set (Wang et al. 2014)"}
{"test": "label from the status in PepcDB records"}
{"sequence": "MRQIPQNHIHTRSTPFWNKETAPAGIFERHLDKGTRPDVYPRLSVMQGAVKYLGYADEHCSEPEEIMVINAGEFGVFPPEKWHNIEVMTDDTYFNIDFFVAPEVLMEGATSRKVIHAGRELEHHHHHH", "protein production": "not failed"}
{"sequence": "MRQIRYAYAVAVDALYTFLADDGWAIASHIALSTLMALFPFLIVLTSLAGFVGSRELADSAAELLLDVWPAQVASTLSGEIHDVLTTTRGGVLTIGLVLALYFASNGVESLRVGLNRAYAVIEPRPWYLLRLESIGYTLVAAFTALAMGFLIVLGPLIVATARHYVPLLVHDNEPLLTFARYGIAITALTVALFLLHAYLPAGRRSFRQILPGIVFTITASLISGMTFGMYLARFANNYVSMYAGLASVIIALVFLYFIAAIFVYGGELNAAIIKSRLPEGTTLQEAQLRAPGAKPV", "protein production": "not failed"}
{"sequence": "MRQLTAAALYENLFGPLALAYAPGRPFEWRSNGRAWRARGRLGAFGRPRLEPGTVECRTGRAWRQASIADAVAALPGAPQEHARLRHELNQTEALLRWNRVNAPRHDRRRMSFSALDAAIDEGHPYHPCFKSRTGFDEHDHRCYGPEADGTFQLDWLGVARELLHLSFPSTEASFWKRELGAAGLADIEARAAALGLEHDRFGLMPIHPWQWRDLSADRLRPLLQSGRIHYLGAAGDRYRASQSVRTLSNAQAPHRSSVKLALGIVNTSTRRNIEAHSVATAPVLSRWLDTILDSDPLFRLRYRLDIVSEFAGAIVDRDGPLGGEIAAIWRESVESKLADGESAVPFNALMAIEADGLPFIDPWLQRYGLKPWLDRLVEVAVLPVWRLLVVHGIATEAHGQNMVLVHRDGWPERLILRDFHDSLEFVPDFLADPNLAPDFLTLDPRYRRALPNQYYWMERPEDLRDLFVDCLFVFNLSEISHLVQSFYGISEGAFWHRVSLRLAADIAEHGLGERVARLGFGTPEIVIESLLARKLGLSGDALQHNVPNPLAAVVPLAREYA", "protein production": "failed"}
{"sequence": "MRRAEIPMNPLINHPAILFVVMLVVMSSATALGALVLRRIRPLPAEVKDDFGIVQGATLTLLALLIGFTLSMAVGRYDQRKNLEEEEANAIGTEYLRADLIEGPEAEQVKALLVRYLDQRILYYRTRDSAQLQEIEAATSQIEDEMWKLMRSAARAKPTPITGLVVSGMNDVINSQGYAEAAWINRIPVSAWGLMIVIAFFSSMMQGYGARSENAKIILMLVLPFTVSLSLALISDIDSPRGGLIRVLPQNLLSLQASLKR", "protein production": "failed"}
{"sequence": "MRRAGYLHLYGLNLVFDRVGKGPPVLLVAEEASRWPEALPEGYAFYLLDLPGYGRTEGPRMAPEELAHFVAGFAVMMNLGAPWVLLRGLGLALGPHLEALGLRALPAEGVEVAEVLSSKLSYGNIDLGGNL", "protein production": "not failed"}
{"sequence": "MRRELLLEKIETYKAIMPWYVLDYYQSKLAVPYSFTTLYEYLKEYKRFFDWLMDADLTQAPKIADIDLSTLEHLTKKDLEAFVLYLRERPSLNTYSTKEGLSQTTINRTLSALSSLYKYLTEEVENDQGEPYFYRNVMKKVSTKKKKETLASRAENIKQKLFLGDETLAFLDYVDKEYEQKLSNRAKSSFRKNKE", "protein production": "failed"}
{"sequence": "MRRFNTSQNKNERNLFNDYIKNEDELYDERDDEGINKEPISLKADVNNNFFPIDQIHSTYFLCNNLNNDNTEKEINEHISFEKIQDHEKEEKKKIFLFNLSDNQKKQIENLKINKIIQNEMYLKKNKILKYIIHIFISDILKEKPNDVYDYASNYFTQPQFKMYILEKLKLRINK", "protein production": "failed"}
{"sequence": "MRRGLVIVGHGSQLNHYREVMELHRKRIEESGAFDEVKIAFAARKRRPMPDEAIREMNCDIIYVVPLFISYGLHVTEDLPDLLGFPRGRGIKEGEFEGKKVVICEPIGEDYFVTYAILNSVFRIGRDGKGEE", "protein production": "not failed"}
{"sequence": "MRRHTSSLDDQSLWRVALDYARDAAVIIDDGGHICYVNQAAERIWGIGRADLVGSHSDCLGVDAIQPEPVAGSHLTNAASDLPLAIDITSRDNRSITAELTRSTIRVDGLNYTMLTVRDVT", "protein production": "failed"}
{"sequence": "MRRILGPVLAAHYLAAFTALGMPLFLPQVLAELAPSAAVGWSGVLYVLPTLCTALTASTWGRWADRNGRKRSLLRAQLGLALGFAIAGFAPSLTWLVIGLIVQGTCGGSLAAANAYLASQPQAGPLARALDWTQYSARLAMVSAPALLGLALALGPAQSLYRALALLPLIAFALTWRLPADQPAAREPAAGTPATSLKHAASSPASPRTVAATSWPALLLAQFLFCFAMVVTFPYFIPYALARGAGHDALAGLLYSLPHLVYLVVLPWWRRGDGEAWLVPGLALFAAACVWQALLHDALALAAARLLFGFGMLFGLRGLNRSLAHIASGHSAGRLFGRFDACGKWAGVFAGAAAGALAQASGPATPFLAAALAAAAAALTVLVRFPSRRTADVAAHDA", "protein production": "failed"}
{"sequence": "MRRLPPWMLGGASTGEAAARNGSQPEAPKTKAEKRPKRVQKTKEKDLNLKSDEPKRVPRKIREEAKRSPEVIQSVTVPEDDDLTVDDLLSFANEVM", "protein production": "failed"}
{"sequence": "MRRLQREIRTYDEEQLKQVREELTTYDLMTRNALLQTAHDLRAKVEQEAVPEGEQATTYLKAVVDDRRHELSVFLPATQASAALENVRRHLVNQILSIGGKAKKLETERCAAERHLKRPTVEVVQREHDAHLRRLRQWQEVQSRFQTWHTYEQAYARWPDLAAAFDSGPTEAATRVATELHKRTLATMQEQDRWREFLRQATEQEHQRQLTPPEDDLPEDDLEEDTWAAAESSEPSGSLFSRLGHTLSRLMAPPGPDEVPSAATAPRETDGWDDVQPQIAPDPRSTVPGLWDDADDLTPVSPVAPARPAPSPPVYDAAAVPALDIDFSAAPRRSRTPAEQMPDPFARAARVRSARRTTTPLVPVPQQLDAAEMPAPRPARTPPGRPATAGNVAPPSAPRTARPPSPTLADFDLWDDEEDMPFGPPATPAPAAASVPQMVPTPRAAARPTPRPVSSPGPSPVPVSPASASVSHAAPWEEPAAGRPAPAPSGVSRRGATRLALPSEQLLDPLPNGARNTVQMDLDAERRGDMINETLRQFGLQAKVVDLARGPTVTRYEIEPAPGEKISRIASLSNDLARALAVGGVRVEAPVPGKSVIGLEVPNAEREPVTFHQATANPAFKNTRAKLPIILGKSIDGSMMVGDLAKMPHLLVAGSTGSGKSVCVNTLITSLLYRYLPTELRFVMIDPKMVELTPYDGIPHLVRPVVTNPADAAGVLLGAVAHMERRYKMMSQVGAKNLEQFNAKMRAVGEVELPHLVIIIDELADLMITSPKEVESAIMRLAQMARATGMHLILATQRPSVDILTSLIKVNIPARIAFAVSSSHDSRTILDTTGAERLTGMGDMLFYQPGLVKPLRLQGPYISEAESARITDELRRMMFDDDFIEAYGADFEGMISSSGPGGDRSQLDFSDPLLRQAALVCIEEGQGSVSRLQRRLSVGHARAGKLMDLLEAMNIVGPHQGSKPREVLIHEADLPEYFGK", "protein production": "failed"}
{"sequence": "MRRRDARPQGTGTAGPTGARHGEDADGTPRHMNAPKGLPLWLKIVTGVVSVALVAGVAFAAFWFIRLQTNITKAPLSAGETRNAGDPLVDDKTDRLQILILGSDTRDGKNAEYGSTEDSTGYGHSDVMMLLDISADNKRVNVLSFPRDLLVDVPQCTDRTNNQTFPARSGVMINEAMAEAGIGCAVDTVNQLTGLEIDHFMMADFNAVKELSHAVGGVNVCVSDPVFDPDSRLRLAKGDSLVEGEQALAFLRTRHAFGDGGDLGRIKGQQAFLSSLTRKLKDEGTLGNPQRLLQIADVVTQNLTVDEGLASVPSLLTIGGRLKDIDVSKVAFVAVPTQAAAADINRLELIEPQASQLFAALRADLDLTTPGATAPPAPSESPAPQPTATTPPAPAYDKAIQPVAVANGSGVATRAQELMTVLTGNGFAQTVSYLANPVDQTVLYYGPGFADVAADVATLFGIPAAQVQEAPGVAGVQLYVGTDFSSGTAYGAASVPSDVVNQTANDAVCQQVNPLYIDQQ", "protein production": "failed"}
{"sequence": "MRRRKAPVREVLGDPVYGNKVVTKFINKMMFDGKKSVAEKIIYKAFNKIEEKSGEKGIEVFEKALERVRPLVEVRSRRVGGATYQVPVEVRASRQQSLSIRWILEATRKRNERMMVDRLANELMDAASDKGAAFKKKEDVHKMAEANKAFAHYRW", "protein production": "failed"}
{"sequence": "MRRRRRRDGFYLAPDFRHREAEDMAGVFDIDLDQPEDAGSEDELEEGGQLNESMDHGGVGPYELGMEHCEKFEISETSVNRGPEKIRPECFELLRVLGKGGYGKVFQVRKVTGANTGKIFAMKVLKKAMIVRNAKDTAHTKAERNILEEVKHPFIVDLIYAFQTGGKPYLILEYLSG", "protein production": "not failed"}
